T1: mouse CLDN18.2 (mouse, UniProt P56857 10-264, Expressed on HEK293T cells as a fusion to GFP. The GFP is left out of the letters.)
T1 construct: also called mouse CLDN18.2 fused to GFP; not shown: The GFP fused to mouse CLDN18.2, and any linker to it
T1 chain: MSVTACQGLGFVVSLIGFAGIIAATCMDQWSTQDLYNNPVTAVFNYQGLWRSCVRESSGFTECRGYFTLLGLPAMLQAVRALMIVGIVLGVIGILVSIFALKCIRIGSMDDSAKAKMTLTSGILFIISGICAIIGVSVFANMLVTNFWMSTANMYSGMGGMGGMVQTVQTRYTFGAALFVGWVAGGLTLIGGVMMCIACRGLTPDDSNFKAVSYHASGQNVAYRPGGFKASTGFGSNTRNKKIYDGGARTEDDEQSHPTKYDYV


Tests used:
mouse CLDN18.2 = biological target: T1, mouse CLDN18.2; assay: FACS dose curve, AF647-labelled IgG on HEK293T mouse CLDN18.2 MP cells
[1] = biological target: T2, human Claudin-18.2 (CLDN18.2) (human); assay: FACS, 1.5 ug antibody, HEK293T-CLDN18.2 C12 clone cells
T2 construct: On cells: fused to GFP in engineered HEK293T cells (clone C12), endogenous in HUPT4 and SNU601 cells; also called human CLDN18.2

[2] = biological target: T2, human Claudin-18.2 (CLDN18.2); assay: FACS, 1.5 ug antibody, HUPT4 cells (endogenous CLDN18.2)
Method: FACS assays were carried out to determine relative antigen binding strengths of the humanized antibodies (at either 1.5 μg or 0.3 μg) for binding to CLDN18.2 as expressed by the indicated cancer cell lines.

[3] = biological target: T2, human Claudin-18.2 (CLDN18.2); assay: KinExA, cell-based; HUPT4, Versene; Error% 3.57; 95% CI 0.31nM - 1.34nM; equilibrium curves 1nM, 20nM
Method: (§1) For each KD measurement, in general, at least two antibody concentration curves were prepared using the same batch of cells (same passage) to avoid changes in expression level from passage to passage. Briefly, either HEK293T CLDN18.2-mGFP C12 cells (engineered overexpression cell line) or HUPT4 cells (native positive cell line) were detached using Versene. Cells were then equilibrated in different concentrations of the antibody solutions, respectively, in 2% FBS/DMEM or 2% FBS/RPMI at 4° C. overnight. Cells concentrations started with 1.8 ×10^7 cells/ml and 2-fold serial dilution was performed to 10 points. In addition, antibody solution only (Signal 100%) and nonspecific binding (NSB) buffer only were included in each curve. Next day, spin the cells at 1500 rpm for 10 mins and saved the supernatant for measurement. […] The KD and antigen expression level were calculated using two antibody curves analyzed by n-curve analysis.

[4] = biological target: T2, human Claudin-18.2 (CLDN18.2); assay: KinExA, cell-based; HEK293T-CLDN18.2-mGFP C12, Versene; Error% 2.35; 95% CI 2.12nM - 6.47nM; equilibrium curves 500pM, 2nM, 10nM
Method: as §1

[5] = biological target: T2, human Claudin-18.2 (CLDN18.2); assay: KinExA, cell-based; HUPT4, Versene; Error% 3.73; 95% CI 0.87nM - 3.23nM; equilibrium curves 1nM, 20nM
Method: as §1

[6] = biological target: T2, human Claudin-18.2 (CLDN18.2); assay: KinExA, cell-based; HEK293T-CLDN18.2-mGFP C12, Versene; Error% 1.84; 95% CI 2.03nM - 4.44nM; equilibrium curves 500pM, 2nM, 10nM
Method: as §1

[7] = biological target: T2, human Claudin-18.2 (CLDN18.2); assay: flow cytometry; HUPT4 over M202 [Cont.]
Method: (§2) The samples were then measured by Intellicyt® iQue Advanced Flow Cytometry Platform.

[8] = biological target: T2, human Claudin-18.2 (CLDN18.2); assay: flow cytometry; HEK293T CLDN18.2 over HEK293T parental [Cont.]
Method: as §2

[9] = biological target: T2, human Claudin-18.2 (CLDN18.2); assay: KinExA, cell-based; HUPT4, Versene; Error% 2.72; 95% CI 0.58nM - 1.43nM; equilibrium curves 1nM, 20nM
Method: as §1

[10] = biological target: T2, human Claudin-18.2 (CLDN18.2); assay: KinExA, cell-based; HEK293T-CLDN18.2-mGFP C12, Versene; Error% 7.72; 95% CI 0.18nM - 11.91nM; equilibrium curves 500pM and 10nM
Method: as §1

[11] = biological target: T2, human Claudin-18.2 (CLDN18.2); assay: KinExA, cell-based; HUPT4, Versene; Error% 3.90; 95% CI 0.28nM - 1.32nM; equilibrium curves 1nM, 20nM
Method: as §1

[12] = biological target: T2, human Claudin-18.2 (CLDN18.2); assay: KinExA, cell-based; HEK293T-CLDN18.2-mGFP C12, Versene; Error% 7.19; 95% CI 0.43nM - 6.90nM; equilibrium curves 500pM and 10nM
Method: as §1

Row | binding result (mouse CLDN18.2) | ratio native [7] | ratio OE [8] | Binder | other results
1 | no binding (tested: 0.32 nM to 1000 nM) | – | – | Ab 376 (antibody, V domains shown) VH: DVKLVESGGGLVKPGGSLKLSCAASGFTFSSYTMSWVRQTPEKRLYWVATISSGVSYTYYPDSVKGRFTISRDNAKNTLYLQMSSLKSEDTAMYYCTRLTKGNAMDYWGQGTSVTVSS VL: DIVMTQSPSSLTVTAGEKVTMSCKSSQSLLNSGNQKNYLTWYQQKPGQPPKLLIYWASTRESGVPDRFTGSGSGTGFTLTISSVQAEDLAVYYCQNDYSYPFTFGAGTKLELK | –
2 | no binding (tested: 0.32 nM to 1000 nM) | – | – | Ab 392 (antibody, V domains shown) VH: EVQLQQSGPELVKPGASVKMSCKASGFTFTSYVMHWVKQKSGQGLEWIGYINPYNDDIKYNAKFEDKATLTSDRSSSTAYMELSSLTSDDSAVYFCTRGDYWGQGTTLTVSS VL: DIVMTQSPSSLTVTTGEKVTMDCKSSQSLLNSGNQKNYLTWYQQKSGQPPKLLIYWASIRKSGVPDRFTGSGSGTDFTLTISSVQAEDLAVYYCLNDYSFPLTFGAGTKLELK | –
3 | no binding (tested: 0.32 nM to 1000 nM) | – | – | Reference antibody 2 (Benchmark 2-163E12) (antibody, V domains shown) VH: QVQLQQSGAELARPGASVKLSCKASGYTFTDYYINWVKQRTGQGLEWIGEIYPGSGNTYYNEKFKGKATLTADKSSSTAYMQLSSLTSEDSAVYFCARSYGAFDYWGQGTTLTVSS VL: DIVMTQSPSSLTVTAGEKVTMSCKSSQSLLNSGNQKNYLTWYQQKPGQPPKLLIYWASTRESGVPDRFTGSGSGTDFTLTISSVQAEDLAVYYCQNDYSYPLTFGAGTKLELK | –
4 | no binding (tested: 0.32 nM to 1000 nM) | – | – | Ab 384 (antibody, V domains shown) VH: QVQLQQSGAELARPGASVKLSCKASDYTFTSYVISWVKQRTGQGLEWIGEIYPRNGNTYYNEKFKGKATLTADKSSSTAYMELRSLTSEDSAVYFCARSYYGNSFAYWGQGTLVTVSA VL: DIVMTQSPSSLTVTAGEKVTMSCKSSQSLLNSGNQKNYLTWYQQRPGQPPKLLIYWASTRESGVPDRFTGSGSGTDFTLTISSVQAEDLAVYCCQNNYYYPFTFGGGTKLGIK | –
5 | – | – | – | HuAb307-3 (antibody, V domains shown, Humanized, expressed as full-length IgG) VH: EVQLLESGGGLVQPGGSLRLSCAASGFTFSSYTMSWVRQAPGKGLEWVATIIIGGSYTYYADSVKGRFTISRDNSKNTLYLQMNSLRAEDTAVYYCTRLVKGNAMDYWGQGTLVTVSS VL: DIVMTQSPDSLAVSLGERVTMNCKSSQSLLNSGNQKNYLSWYQQKPGQPPKLLFYWASTRESGVPDRFSGSGSGTDFTLTISSVQAEDVAVYYCQNDYSYPFTFGQGTKLEIK | FACS signal (relative antigen binding strength) [1]: 151000; FACS signal (relative antigen binding strength) [2]: 34000; Kd [3]: 0.69 nM; Kd [4]: 3.65 nM
6 | – | – | – | 02-0358-h3 (antibody, V domains shown, Humanized IgG) VH: EVQLVESGGGLVQPGGSLRLSCAVSGFTFSSFGMHWVRQAPGKGLEWVAYISSGTTNIYYADSVKGRFTVSRDNAKNSLYLQMNSLRAEDTAVYYCVRSGYYGNSLDYWGQGTLVTVSS VL: DIVMTQSPDSLAVSLGERVTMNCKSSQSLFNSGNQRNYLTWYQQKPGQPPKLLIYWASTRESGVPDRFSGSGSGTDFTLTISSVQAEDVAVYYCQNVYIYPLTFGQGTKLEIK | Kd [5]: 1.7 nM; Kd [6]: 3 nM
7 | – | 137 | 482 | 02-0307-h6 (antibody, V domains shown, Humanized IgG (detected with anti-human IgG Fc)) VH: EVQLLESGGGLVQPGGSLRLSCAASGFTFSSYTMSWVRQAPGKGLEWVATIIIGGSYTYYADSVKGRFTISRDNSKNTLYLQMNSLRAEDTAVYYCTRLVKGNAMDYWGQGTLVTVSS VL: DIVMTQSPDSLAVSLGERVTMNCKSSQSLLSSGNQKNYLSWYQQKPGQPPKLLFYWASTRESGVPDRFSGSGSGTDFTLTISSVQAEDVAVYYCQNDYSYPFTFGQGTKLEIK | Kd [9]: 0.93 nM; Kd [10]: 1.42 nM
8 | – | 111 | 574 | 02-0358-h5 (antibody, V domains shown, Humanized IgG) VH: EVQLVESGGGLVQPGGSLRLSCAVSGFTFSSFGMHWVRQAPGKGLEWVAYISSGTTNIYYADSVKGRFTVSRDNAKNSLYLQMNSLRAEDTAVYYCVRSGYYGNSLDYWGQGTLVTVSS VL: DIVMTQSPDSLAVSLGERVTMNCKSSQSLFSSGNQRNYLTWYQQKPGQPPKLLIYWASTRESGVPDRFSGSGSGTDFTLTISSVQAEDVAVYYCQNVYIYPLTFGQGTKLEIK | Kd [11]: 0.67 nM; Kd [12]: 1.81 nM
9 | – | 54.1 | 274 | 02-0358-10h antibody (antibody, V domains shown) VH: EVQLVESGGGLVQPGGSLRLSCAVSGFTFSSFGMHWVRQAPGKGLEWVAYISSGTTNIYYADSVKGRFTVSRDNAKNSLYLQMNSLRAEDTAVYYCVRSGYYGSSLDYWGQGTLVTVSS VL: DIVMTQSPDSLAVSLGERVTMNCKSSQSLFQSGNQRNYLTWYQQKPGQPPKLLIYWASTRESGVPDRFSGSGSGTDFTLTISSVQAEDVAVYYCQNVYIYPLTFGQGTKLEIK | –
10 | – | 94.1 | 449 | 02-0358-7h antibody (antibody, V domains shown) VH: EVQLVESGGGLVQPGGSLRLSCAVSGFTFSSFGMHWVRQAPGKGLEWVAYISSGTTNIYYADSVKGRFTVSRDNAKNSLYLQMNSLRAEDTAVYYCVRSGYYGSSLDYWGQGTLVTVSS VL: DIVMTQSPDSLAVSLGERVTMNCKSSQSLFNSGNQRNYLTWYQQKPGQPPKLLIYWASTRESGVPDRFSGSGSGTDFTLTISSVQAEDVAVYYCQNVYIYPLTFGQGTKLEIK | –
11 | – | 88.8 | 456 | 02-0358-11h antibody (antibody, V domains shown) VH: EVQLVESGGGLVQPGGSLRLSCAVSGFTFSSFGMHWVRQAPGKGLEWVAYISSGTTNIYYADSVKGRFTVSRDNAKNSLYLQMNSLRAEDTAVYYCVRSGYYGSSLDYWGQGTLVTVSS VL: DIVMTQSPDSLAVSLGERVTMNCKSSQSLFSSGNQRNYLTWYQQKPGQPPKLLIYWASTRESGVPDRFSGSGSGTDFTLTISSVQAEDVAVYYCQNVYIYPLTFGQGTKLEIK | –
12 | – | 57.9 | 229 | 02-0358-8h antibody (antibody, V domains shown) VH: EVQLVESGGGLVQPGGSLRLSCAVSGFTFSSFGMHWVRQAPGKGLEWVAYISSGTTNIYYADSVKGRFTVSRDNAKNSLYLQMNSLRAEDTAVYYCVRSGYYGQSLDYWGQGTLVTVSS VL: DIVMTQSPDSLAVSLGERVTMNCKSSQSLFQSGNQRNYLTWYQQKPGQPPKLLIYWASTRESGVPDRFSGSGSGTDFTLTISSVQAEDVAVYYCQNVYIYPLTFGQGTKLEIK | –
13 | – | 93.4 | 453 | 02-0358-9h antibody (antibody, V domains shown) VH: EVQLVESGGGLVQPGGSLRLSCAVSGFTFSSFGMHWVRQAPGKGLEWVAYISSGTTNIYYADSVKGRFTVSRDNAKNSLYLQMNSLRAEDTAVYYCVRSGYYGQSLDYWGQGTLVTVSS VL: DIVMTQSPDSLAVSLGERVTMNCKSSQSLFSSGNQRNYLTWYQQKPGQPPKLLIYWASTRESGVPDRFSGSGSGTDFTLTISSVQAEDVAVYYCQNVYIYPLTFGQGTKLEIK | –
14 | no binding (tested: 0.32 nM to 1000 nM) | – | – | Ab 400 (antibody, V domains shown) VH: QVQLKESGPGLVAPSQSLSITCTVSGFSLNSYGVSWVRQPPGKGLEWLGVIWGDGSTNYHSALKSRLNINKDKSKSQVFLKLNSLQTDDTATYYCARPTRGNAMDYWGQGTSVTVSS VL: DVVMTQSPSSLTVTAGEKVTMNCKSSQSLLNSGNQRSYLTWYQQKPGQPPKLLIYWASTRESGAPDRFTGSGSGADFTLTISSVQAEDLAIYYCQNNYNYPFTFGSGTKLEIK | –
